Data: the supplement of paper PMC10126150
± gives the standard deviation of the averaged measurements.

Tested on: ATP
Experiment: switch fluorescence ratio, 500 uM ATP over buffer (Cy3 cluster intensity, sum of 5 cycles each) (fold (ratio)); higher = stronger signal-on switching upon ATP binding; sequences stand for … in TCGTCGGCAGCGTCAGATGTGTATAAGAGACAGTTTTTTTTTTTTTTTTTTTTTTTTT…TC
Settings: aptamer strand: ATP DNA aptamer (quencher-CACCTGGGGGAGTATTGCGGAGGAAGG + anchor), 100 nM annealed; ATP concentration: 500 uM
Summary of the method: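 Exposure to 500 uM ATP lasted 15 min at 22 °C before imaging, and a selection-buffer image was taken beforehand, for Cy3-labelled switching-strand clusters on a modified Illumina MiSeq flow-cell annealed to 100 nM quencher-labelled ATP aptamer. Five buffer/ATP cycles were run with NaOH stripping and re-annealing between them. The fluorescence ratio per cluster is summed target-cycle over summed buffer-cycle Cy3 intensity, averaged per switch-domain sequence. Clusters outside 100-1000 RFU were excluded.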

ATGTAGGGGA
switch fluorescence ratio: 1.0051 ± 0.001

ATGTAGGGGC
switch fluorescence ratio: 1.03 ± 0.046

ATGTAGGTGA
switch fluorescence ratio: 1.03 ± 0.017

ATGTAGTCGC
switch fluorescence ratio: 1.004 ± 0.0012

ATGTAGTTAT
switch fluorescence ratio: 0.996 ± 0.048

ATGTAGTTCG
switch fluorescence ratio: 0.981 ± 0.03

ATGTATACTT
switch fluorescence ratio: 1.09 ± 0.14

ATGTATAGCC
switch fluorescence ratio: 0.995 ± 0.036

ATGTATAGGA
switch fluorescence ratio: 0.992 ± 0.029

ATGTATATGC
switch fluorescence ratio: 1.08 ± 0.069

ATGTATCAGG
switch fluorescence ratio: 1.03 ± 0.022

ATGTATTTTG
switch fluorescence ratio: 0.967 ± 0.049

ATGTCAAGGC
switch fluorescence ratio: 1.05 ± 0.052

ATGTCACTGT
switch fluorescence ratio: 1.01 ± 0.043

ATGTCATAAA
switch fluorescence ratio: 1.0269 ± 0.0006

ATGTCATGGG
switch fluorescence ratio: 0.998 ± 0.032

ATGTCCAGGG
switch fluorescence ratio: 1.21 ± 0.04

ATGTCCGAAT
switch fluorescence ratio: 1.02 ± 0.012

ATGTCTTGAT
switch fluorescence ratio: 0.963 ± 0.014

ATGTGAGGGA
switch fluorescence ratio: 0.991 ± 0.02

ATGTGATGAA
switch fluorescence ratio: 0.973 ± 0.019

ATGTGATGGC
switch fluorescence ratio: 0.981 ± 0.019

ATGTGCCGTC
switch fluorescence ratio: 1.04 ± 0.048

ATGTGCTTGG
switch fluorescence ratio: 1.02 ± 0.027

ATGTGGAGTC
switch fluorescence ratio: 1.05 ± 0.063

ATGTGGATGC
switch fluorescence ratio: 0.98 ± 0.045

ATGTGGATGG
switch fluorescence ratio: 0.976 ± 0.023

ATGTGGCCGG
switch fluorescence ratio: 0.997 ± 0.024

ATGTGGCCTA
switch fluorescence ratio: 0.986 ± 0.034

ATGTGGCTTA
switch fluorescence ratio: 0.989 ± 0.022

ATGTGGGCTG
switch fluorescence ratio: 0.979 ± 0.045

ATGTGGGTAC
switch fluorescence ratio: 1.02 ± 0.026

ATGTGGGTAT
switch fluorescence ratio: 1.028 ± 0.0068

ATGTGGGTTT
switch fluorescence ratio: 0.974 ± 0.021

ATGTGGTCGC
switch fluorescence ratio: 0.9972 ± 0.0016

ATGTGTAAAC
switch fluorescence ratio: 1.01 ± 0.038

ATGTGTAACC
switch fluorescence ratio: 1 ± 0.039

ATGTGTAGGC
switch fluorescence ratio: 1.02 ± 0.026

ATGTGTAGGG
switch fluorescence ratio: 0.9711 ± 0.0014

ATGTGTATTG
switch fluorescence ratio: 0.985 ± 0.025

ATGTGTGGAG
switch fluorescence ratio: 1.013 ± 0.0048

ATGTGTGTGG
switch fluorescence ratio: 1.03 ± 0.017

ATGTGTTACC
switch fluorescence ratio: 1.01 ± 0.021

ATGTTAAATC
switch fluorescence ratio: 0.96 ± 0.029

ATGTTAACTA
switch fluorescence ratio: 0.985 ± 0.065

ATGTTAGTGG
switch fluorescence ratio: 1.01 ± 0.066

ATGTTATTGG
switch fluorescence ratio: 0.967 ± 0.033

ATGTTGATAT
switch fluorescence ratio: 1.01 ± 0.045

ATGTTGGGAA
switch fluorescence ratio: 0.978 ± 0.029

ATGTTGGGGG
switch fluorescence ratio: 0.989 ± 0.018

ATGTTGGGGT
switch fluorescence ratio: 1 ± 0.029

ATGTTGTGGT
switch fluorescence ratio: 0.987 ± 0.031

ATGTTTATCT
switch fluorescence ratio: 0.979 ± 0.044

ATGTTTGCTT
switch fluorescence ratio: 0.974 ± 0.025

ATGTTTGTTT
switch fluorescence ratio: 0.993 ± 0.05

ATGTTTTAGG
switch fluorescence ratio: 1.01 ± 0.047

ATGTTTTCCT
switch fluorescence ratio: 1.0718 ± 0.00067

ATGTTTTTAG
switch fluorescence ratio: 0.991 ± 0.018

ATTAAAAATC
switch fluorescence ratio: 0.968 ± 0.036

ATTAAACGGG
switch fluorescence ratio: 0.997 ± 0.012

ATTAAATAAC
switch fluorescence ratio: 1.02 ± 0.02

ATTAAATCAG
switch fluorescence ratio: 1.013 ± 0.0058

ATTAAATGAT
switch fluorescence ratio: 0.9574 ± 0.002

ATTAACCAGG
switch fluorescence ratio: 1.27 ± 0.065

ATTAACTTTG
switch fluorescence ratio: 1.01 ± 0.05

ATTAAGAGTA
switch fluorescence ratio: 0.961 ± 0.012

ATTAAGGATT
switch fluorescence ratio: 1.01 ± 0.016

ATTAAGGCCC
switch fluorescence ratio: 0.988 ± 0.044

ATTAAGGCGC
switch fluorescence ratio: 0.998 ± 0.029

ATTAAGGGCA
switch fluorescence ratio: 0.97 ± 0.011

ATTAAGGTAA
switch fluorescence ratio: 1.01 ± 0.033

ATTAAGTTGG
switch fluorescence ratio: 0.982 ± 0.022

ATTAAGTTTC
switch fluorescence ratio: 0.9675 ± 0.0012

ATTAAGTTTT
switch fluorescence ratio: 1 ± 0.028

ATTAATAGTT
switch fluorescence ratio: 0.997 ± 0.053

ATTAATTTTG
switch fluorescence ratio: 0.992 ± 0.023

ATTACGGAGA
switch fluorescence ratio: 1.05 ± 0.069

ATTACGGGAT
switch fluorescence ratio: 1.01 ± 0.062

ATTACGTAGC
switch fluorescence ratio: 1.428 ± 0.0063

ATTACTGAGT
switch fluorescence ratio: 1.03 ± 0.015

ATTACTGTGC
switch fluorescence ratio: 0.94 ± 0.02

ATTACTTAAG
switch fluorescence ratio: 1 ± 0.046

ATTAGAAGGG
switch fluorescence ratio: 0.985 ± 0.061

ATTAGAATGG
switch fluorescence ratio: 1 ± 0.01

ATTAGACGGA
switch fluorescence ratio: 1.058 ± 0.0045

ATTAGATATA
switch fluorescence ratio: 1 ± 0.035

ATTAGATTTT
switch fluorescence ratio: 1.02 ± 0.12

ATTAGGAGAT
switch fluorescence ratio: 0.9964 ± 0.0063

ATTAGGATTG
switch fluorescence ratio: 1 ± 0.053

ATTAGGGGAG
switch fluorescence ratio: 0.972 ± 0.0028

ATTAGGGTAT
switch fluorescence ratio: 1.0078 ± 0.00026

ATTAGGTATG
switch fluorescence ratio: 0.969 ± 0.016

ATTAGGTTGA
switch fluorescence ratio: 0.975 ± 0.0047

ATTAGTACTG
switch fluorescence ratio: 1.02 ± 0.02

ATTAGTCAGG
switch fluorescence ratio: 1.03 ± 0.019

ATTAGTCGGT
switch fluorescence ratio: 0.97109 ± 0.00068

ATTAGTTTTG
switch fluorescence ratio: 0.99 ± 0.029

ATTATACGGC
switch fluorescence ratio: 1.056 ± 0.0042

ATTATAGGGG
switch fluorescence ratio: 0.986 ± 0.0017

ATTATAGTAA
switch fluorescence ratio: 0.9886 ± 0.0022

ATTATATGTG
switch fluorescence ratio: 1.02 ± 0.027

ATTATCAGTT
switch fluorescence ratio: 0.987 ± 0.021

ATTATCGCGC
switch fluorescence ratio: 0.983 ± 0.031

ATTATCTACT
switch fluorescence ratio: 1.04 ± 0.026

ATTATGACGG
switch fluorescence ratio: 0.982 ± 0.047

ATTATGAGTA
switch fluorescence ratio: 0.9727 ± 0.0091

ATTATGATAT
switch fluorescence ratio: 1.01 ± 0.015

ATTATGGAAG
switch fluorescence ratio: 0.994 ± 0.018

ATTATGGCAC
switch fluorescence ratio: 1.01 ± 0.0041

ATTATGGCGT
switch fluorescence ratio: 0.999 ± 0.013

ATTATGGGAG
switch fluorescence ratio: 0.989 ± 0.011

ATTATGGGTA
switch fluorescence ratio: 1.02 ± 0.036

ATTATGGTCG
switch fluorescence ratio: 0.999 ± 0.084

ATTATGTACT
switch fluorescence ratio: 1.05 ± 0.022

ATTATGTCTG
switch fluorescence ratio: 0.966 ± 0.071

ATTATTAATT
switch fluorescence ratio: 0.973 ± 0.022

ATTATTACGT
switch fluorescence ratio: 0.99 ± 0.038

ATTATTGACT
switch fluorescence ratio: 1.04 ± 0.014

ATTATTGGCG
switch fluorescence ratio: 1.01 ± 0.042

ATTATTGGGA
switch fluorescence ratio: 1 ± 0.046

ATTATTGGGG
switch fluorescence ratio: 0.9642 ± 0.0086

ATTCAAAAAA
switch fluorescence ratio: 0.999 ± 0.039

ATTCAAATGT
switch fluorescence ratio: 1 ± 0.03

ATTCAGGCTT
switch fluorescence ratio: 1.029 ± 0.0019

ATTCAGGTTC
switch fluorescence ratio: 0.996 ± 0.032

ATTCAGGTTG
switch fluorescence ratio: 1.02 ± 0.016

ATTCATATGT
switch fluorescence ratio: 0.999 ± 0.018

ATTCATGTGT
switch fluorescence ratio: 1.02 ± 0.026

ATTCATTATT
switch fluorescence ratio: 0.9927 ± 0.0049

ATTCATTGC
switch fluorescence ratio: 1.038 ± 0.0048

ATTCATTGGG
switch fluorescence ratio: 0.9872 ± 0.0075

ATTCCAATTT
switch fluorescence ratio: 1.08 ± 0.035

ATTCCCAATT
switch fluorescence ratio: 1.04 ± 0.025

ATTCGCCACT
switch fluorescence ratio: 1.011 ± 0.0012

ATTCGCGAGG
switch fluorescence ratio: 0.982 ± 0.027

ATTCGGGGCT
switch fluorescence ratio: 1 ± 0.038

ATTCGGGGGG
switch fluorescence ratio: 0.99 ± 0.022

ATTCGGTCTG
switch fluorescence ratio: 0.9825 ± 0.006

ATTCGGTTGT
switch fluorescence ratio: 1.001 ± 0.0059

ATTCGTGCGC
switch fluorescence ratio: 1.071 ± 0.0046

ATTCGTTATG
switch fluorescence ratio: 1 ± 0.013

ATTCGTTGG
switch fluorescence ratio: 1 ± 0.038

ATTCTACGGC
switch fluorescence ratio: 1.06 ± 0.073

ATTCTAGTAT
switch fluorescence ratio: 0.962 ± 0.026

ATTCTAGTCG
switch fluorescence ratio: 1.02 ± 0.086

ATTCTCCTTG
switch fluorescence ratio: 1 ± 0.017

ATTCTCTGGT
switch fluorescence ratio: 1.01 ± 0.076

ATTCTGCTCC
switch fluorescence ratio: 0.991 ± 0.041

ATTCTTTGGT
switch fluorescence ratio: 0.979 ± 0.054

ATTCTTTGTT
switch fluorescence ratio: 0.962 ± 0.045

ATTCTTTTGG
switch fluorescence ratio: 0.9726 ± 0.0041

ATTGAAGATT
switch fluorescence ratio: 0.989 ± 0.037

ATTGACGAGG
switch fluorescence ratio: 1.001 ± 0.0026

ATTGACGGGT
switch fluorescence ratio: 0.9762 ± 0.0085

ATTGAGAGGG
switch fluorescence ratio: 1.07 ± 0.075

ATTGAGCGGG
switch fluorescence ratio: 1 ± 0.034

ATTGAGGAAT
switch fluorescence ratio: 0.965 ± 0.064
